Data on 18 molecules can be found in patent US20200121803A1 (published 2020).

Changes are numbered by the printed parent chain.

Assay [1] concerns the target T1, Human CD98, endogenous on HCC38, Molt-4 and Jurkat human cancer cells (human).
T1 chain: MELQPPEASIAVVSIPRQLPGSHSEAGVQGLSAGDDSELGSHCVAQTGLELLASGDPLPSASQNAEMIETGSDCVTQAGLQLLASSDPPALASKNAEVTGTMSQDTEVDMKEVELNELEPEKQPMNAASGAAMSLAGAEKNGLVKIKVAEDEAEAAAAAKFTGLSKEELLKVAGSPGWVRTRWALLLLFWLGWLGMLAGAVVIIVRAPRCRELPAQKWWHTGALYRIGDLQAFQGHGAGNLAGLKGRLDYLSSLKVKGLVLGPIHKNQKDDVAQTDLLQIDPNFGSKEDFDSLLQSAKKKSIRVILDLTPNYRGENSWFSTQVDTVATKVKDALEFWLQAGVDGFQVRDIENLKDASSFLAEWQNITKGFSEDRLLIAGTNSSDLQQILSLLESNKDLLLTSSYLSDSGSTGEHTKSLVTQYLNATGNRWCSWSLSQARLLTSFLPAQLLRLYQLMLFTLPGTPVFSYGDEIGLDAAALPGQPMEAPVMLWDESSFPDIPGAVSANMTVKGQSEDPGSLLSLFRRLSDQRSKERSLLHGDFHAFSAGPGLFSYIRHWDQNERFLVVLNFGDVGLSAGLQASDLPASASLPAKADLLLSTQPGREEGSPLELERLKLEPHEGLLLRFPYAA
Put plainly: cell-based or functional assay.

The target in assay [2] is T2, human CD98, endogenously expressed on Molt-4 human acute lymphoblastic leukemia cells (human).
T2 chain: T1 chain
Put plainly: cell-based or functional assay.

B1: Ab1-CZ (Ab1 conjugated to Bcl-xL inhibitor synthon CZ) (antibody, V domains shown)
VH: EVKLVESGGGLVQPGGSLRLSCATSGFTFTDYYMSWVRQPPGKALEWLGFIRNPANVYTTEYSASVKGRFTISRDNSQSILYLQMNTLRAEDSATYYCARASYGNSEGWFAYWGQGTLVTVSA
VL: DIVMSQSPSSLAVSVGEKVTMSCKSSQNLLYNNNQKNYLAWYQQKPGQSPKLLIYWASTRESGVPDRFTGSGSGTDFTLTISSVKAEDLAVYYCQQYYSYPRTFGGGTKLEIK
Regarding B1, in assay [1], the “ADC potency, IC50 (nM), HCC38 growth inhibition” value was found to be 0.998 nM; the “ADC potency, IC50 (nM), Jurkat growth inhibition” value was found to be 0.05 nM; the “ADC potency, IC50 (nM), Molt-4 growth inhibition” value came to 0.053 nM.

B2: Ab3-CZ (Ab3 conjugated to Bcl-xL inhibitor synthon CZ) (antibody, V domains shown)
VH: EVKLVESGGGLVQPGNSLRLSCATSGFTFIDYYMSWVRQSPGKALEWLGFIRNKANGYTTEYSASVKGRFTISRDNSQSILYLQMDTLRAEDSATYYCTRDRPAWFVYWGQGTLVTVSA
VL: B1 VL with N28S, N32S, N33S, I81F, K85R, R102Y
With B2, in assay [1], the “ADC potency, IC50 (nM), HCC38 growth inhibition” value amounted to 0.561 nM; the “ADC potency, IC50 (nM), Jurkat growth inhibition” value was 0.071 nM; the “ADC potency, IC50 (nM), Molt-4 growth inhibition” value stood at 0.031 nM.

B3: Ab5-CZ (Ab5 conjugated to Bcl-xL inhibitor synthon CZ) (antibody, V domains shown)
VH: B1 VH with S35T, P54K, V57G, Q78L, G104V
VL: B1 VL with N28S, N32S, N33S, P46L, Q96H
For the molecule B3, in assay [1], the “ADC potency, IC50 (nM), HCC38 growth inhibition” value stood at 0.728 nM; the “ADC potency, IC50 (nM), Jurkat growth inhibition” value turned out to be 0.137 nM; the “ADC potency, IC50 (nM), Molt-4 growth inhibition” value is 0.022 nM.

B4: Ab4-CZ (Ab4 conjugated to Bcl-xL inhibitor synthon CZ) (antibody, V domains shown)
VH: B1 VH with A23T, P54K, N56T, V57I
VL: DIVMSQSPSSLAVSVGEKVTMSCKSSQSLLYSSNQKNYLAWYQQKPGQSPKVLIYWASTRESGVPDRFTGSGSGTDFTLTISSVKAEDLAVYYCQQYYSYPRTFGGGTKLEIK
As to B4, in assay [1], the “ADC potency, IC50 (nM), HCC38 growth inhibition” value was found to be 0.879 nM; the “ADC potency, IC50 (nM), Jurkat growth inhibition” value is 0.371 nM; the “ADC potency, IC50 (nM), Molt-4 growth inhibition” value worked out at 0.127 nM.

B5: Ab2-CZ (Ab2 conjugated to Bcl-xL inhibitor synthon CZ) (antibody, V domains shown)
VH: B1 VH with T28N, P54K, V57G, N76D
VL: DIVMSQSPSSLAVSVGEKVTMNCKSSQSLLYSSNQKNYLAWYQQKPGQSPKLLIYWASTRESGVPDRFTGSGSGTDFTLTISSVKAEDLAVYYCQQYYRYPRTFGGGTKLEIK
As to B5, in assay [1], the “ADC potency, IC50 (nM), HCC38 growth inhibition” value came to 0.791 nM; the “ADC potency, IC50 (nM), Jurkat growth inhibition” value came out at 0.065 nM; the “ADC potency, IC50 (nM), Molt-4 growth inhibition” value came to 0.05 nM.

B6: Ab6-CZ (Ab6 conjugated to Bcl-xL inhibitor synthon CZ) (antibody, V domains shown)
VH: QVQLKESGPGLAQPSQTLSLTCTVSGFSLSTYGVIWLRQPPGKGLEWMGVIWTNGNTNYNSTLKSRLSISRDTSESQVYLQMNSLQTEDTATYYCARHYYDGAYYYGYFDYWGQGVMVTVSS
VL: DIVMTQTPSSQAVSAGEKVTMSCKSSQSLLYSENKKNYLAWYQQKPGQSPKLLIYWASTRESGVPDRFIGSGSGTDFTLTISSVQAEDLAVYYCQQYYYFPYTFGAGTKLELK
As for B6, in assay [1], the “ADC potency, IC50 (nM), HCC38 growth inhibition” value is 0.438 nM; the “ADC potency, IC50 (nM), Jurkat growth inhibition” value came to 0.086 nM; the “ADC potency, IC50 (nM), Molt-4 growth inhibition” value was 0.057 nM.

B7: Ab7-CZ (Ab7 conjugated to Bcl-xL inhibitor synthon CZ) (antibody, V domains shown)
VH: B6 VH with A12V, L37V, T53A, E75K, Q81K, A103T
VL: B6 VL with S22N, A106P
B7: in assay [1], the “ADC potency, IC50 (nM), HCC38 growth inhibition” value is 1.15 nM; the “ADC potency, IC50 (nM), Jurkat growth inhibition” value was 0.134 nM; the “ADC potency, IC50 (nM), Molt-4 growth inhibition” value was 0.079 nM.

B8: Ab13-CZ (Ab13 conjugated to Bcl-xL inhibitor synthon CZ) (antibody, V domains shown)
VH: B6 VH with A12V, T31S, L37V, V50I, T53A, T62A, E75K, Q81K, A103T, Y104H
VL: B6 VL with I2T, N37K, Y99N
Turning to B8, in assay [1], the “ADC potency, IC50 (nM), HCC38 growth inhibition” value turned out to be 0.787 nM; the “ADC potency, IC50 (nM), Jurkat growth inhibition” value is 0.149 nM; the “ADC potency, IC50 (nM), Molt-4 growth inhibition” value is 0.38 nM.

B9: Ab9-CZ (Ab9 conjugated to Bcl-xL inhibitor synthon CZ) (antibody, V domains shown)
VH: B6 VH with A12V, T23A, T31N, L37V, G49A, E75K, Q81K, A103T
VL: B6 VL with S32T, I69M, T103M
In the case of B9, in assay [1], the “ADC potency, IC50 (nM), HCC38 growth inhibition” value was determined as 1.09 nM; the “ADC potency, IC50 (nM), Jurkat growth inhibition” value was found to be 0.092 nM; the “ADC potency, IC50 (nM), Molt-4 growth inhibition” value turned out to be 0.03 nM.

B10: Ab14-CZ (Ab14 conjugated to Bcl-xL inhibitor synthon CZ) (antibody, V domains shown)
VH: EVKLQQSGDELVRPGASVKISCKASGYTFTSYSMHWVKERPGQGLEWIGAIFPIIGTTEYNQKFKGKATLTADKSSNTANMELSRLTSEDSAVYYCARVYLSYFDYWGQGVMVTVSS
VL: DIQMTQSPSFLSASVGDRVTINCKASQNINKYLDWYQRKHGEAPKLLIYNTNNLQTGIPSRFSGSGSGTDYTLTISSLQPEDVATYFCLQHSSRYTFGAGTKLELK
B10: in assay [1], the “ADC potency, IC50 (nM), HCC38 growth inhibition” value was found to be 0.798 nM; the “ADC potency, IC50 (nM), Jurkat growth inhibition” value was 0.063 nM; the “ADC potency, IC50 (nM), Molt-4 growth inhibition” value was found to be 0.025 nM.

B11: Ab8-CZ (Ab8 conjugated to Bcl-xL inhibitor synthon CZ) (antibody, V domains shown)
VH: EVQLVESGGGLVQPGRSLKLSCAASGFTFSDYAMAWVRQAPKKGLEWVASIIYDGRGTYYRDSVKGRFTISRDNAKSTLYLQMDSLRSEDTATYYCARQGDGTYYYWGYFDYWGQGVMVTVSS
VL: DIVMTQSPSSLAVSAGETVTINCKSSQSLLSSGNQKNYLAWYQQKPGQSPKLLIYWASTRQSGVPDRFIGSGSGTDFTLTINSVQAEDLAIYYCQQYYDTPYTFGAGTKLELK
As for B11, in assay [1], the “ADC potency, IC50 (nM), HCC38 growth inhibition” value stood at 0.963 nM; the “ADC potency, IC50 (nM), Jurkat growth inhibition” value was found to be 0.121 nM; the “ADC potency, IC50 (nM), Molt-4 growth inhibition” value is 0.079 nM.

B12: Ab12-CZ (Ab12 conjugated to Bcl-xL inhibitor synthon CZ) (antibody, V domains shown)
VH: B11 VH with Y109S
VL: B11 VL with N82S, Y93H
Consider B12, for which, in assay [1], the “ADC potency, IC50 (nM), HCC38 growth inhibition” value was determined as 0.685 nM; the “ADC potency, IC50 (nM), Jurkat growth inhibition” value came out at 0.094 nM; the “ADC potency, IC50 (nM), Molt-4 growth inhibition” value was 0.087 nM.

B13: Ab11-CZ (Ab11 conjugated to Bcl-xL inhibitor synthon CZ) (antibody, V domains shown)
VH: B11 VH with S50G
VL: B11 VL with K24R, N82S
Consider B13, for which, in assay [1], the “ADC potency, IC50 (nM), HCC38 growth inhibition” value came to 1.14 nM; the “ADC potency, IC50 (nM), Jurkat growth inhibition” value amounted to 0.311 nM; the “ADC potency, IC50 (nM), Molt-4 growth inhibition” value was found to be 0.279 nM.

B14: Ab10-CZ (Ab10 conjugated to Bcl-xL inhibitor synthon CZ) (antibody, V domains shown)
VH: B11 VH with G44S, S50T, Y60C, Y105H
VL: B11 VL with N82S, L110V, E111D
For B14, in assay [1], the “ADC potency, IC50 (nM), HCC38 growth inhibition” value amounted to 1.16 nM; the “ADC potency, IC50 (nM), Jurkat growth inhibition” value was found to be 0.148 nM; the “ADC potency, IC50 (nM), Molt-4 growth inhibition” value worked out at 0.047 nM.

B15: Ab15-CZ (Ab15 conjugated to Bcl-xL inhibitor synthon CZ) (antibody, V domains shown)
VH: B11 VH with A33T, S50T, G100S
VL: B11 VL with S31F, N82R, T100S
With B15, in assay [1], the “ADC potency, IC50 (nM), HCC38 growth inhibition” value stood at 1.06 nM; the “ADC potency, IC50 (nM), Jurkat growth inhibition” value was found to be 0.076 nM; the “ADC potency, IC50 (nM), Molt-4 growth inhibition” value worked out at 0.071 nM.

B16: CD98 (CL-huAb102)-CZ (antibody, human IgG1, kappa, L234A L235A, V domains shown)
VH: EVQLVESGGGLVQPGGSLRLSCATSGFTFIDYYMSWVRQAPGKGLEWLGFIRNKANRYTTEYSASVKGRFTISRDNSKSILYLQMNSLKTEDTAVYYCTRDRPAWFVYWGQGTLVTVSS
VL: DIVMTQTPLSLPVTPGEPASISCKSSQSLLYSSNQKNYLAWYLQKPGQSPQLLIYWASTRESGVPDRFSGSGSGTDFTLKISRVEAEDVGVYYCQQYYSYPYTFGGGTKVEIKR
modifications: synthon CZ on reduced interchain cysteines (sites not given)
In the case of B16, in assay [2], the “% Cell Viability at 50 nM” value stood at 1% and the “Molt4 IC50” value was found to be 0.015 nM.

B17: CD98 (CL-huAb104)-CZ (antibody, human IgG1, kappa, L234A L235A, V domains shown)
VH: B16 VH with N56Y, R57G
VL: B16 VL
modifications: synthon CZ on reduced interchain cysteines (sites not given)
On to B17, for which, in assay [2], the “% Cell Viability at 50 nM” value amounted to 0.9% and the “Molt4 IC50” value worked out at 0.023 nM.

B18: CD98 (CL-huAb108)-CZ (antibody, human IgG1, kappa, L234A L235A, V domains shown)
VH: EVQLVQSGAEVKKPGASVKVSCKASGFTFSDYTMAWVRQAPGQGLEWVATIIYSGRGTYYRDAVKGRFTITRDNSTSTLYLELSSLRSEDTAVYYCARQSDDTYYYWGYFDYWGQGTMVTVSS
VL: B16 VL with S22N, Y31F, S33G, E61Q, V91I, S99D, Y100V, G106Q, V110L
modifications: synthon CZ on reduced interchain cysteines (sites not given)
On to B18, for which, in assay [2], the “% Cell Viability at 50 nM” value came to 1.1% and the “Molt4 IC50” value worked out at 0.068 nM.
